# B1: ET200-038 (scFv)
# scFv: QSVLTQPPSVSGAPGQRVTISCTGSSSNIGAGFDVHWYQLLPGTAPKLLIYANSNRPSGVPDRFSGSKSGTSASLAITGLLAEDEADYYCQSYDSSLSGVVFGGGTKLTVLGSRGGGGSGGGGSGGGGSLEMAQVQLVQSGAEVKKPGSSVKVSCKASGGTFSSYAISWVRQAPGQGLEWMGGIIPIFGTANYAQKFQGRVTITADESTSTAYMELSSLRSEDTAVYYCARGASFDRHDNWGQGTLVTVSSTSGQAGQHHHHHHGAYPYDVPDYAS
# notes: screened as phage clone; entry is VL-linker-VH-His tag-HA tag
# B2: ET200-003 (scFv)
# scFv: QSVLTQPPSVSVSPGQTASISCSGNKLGTKYVYWYQKRPGQSPVLVMYEDNQRPSGIPERFSGSNSGNTATLTIRGTQTVDEADYYCQAWDSDTFVVFGGGTKVTVLGSRGGGGSGGGGSGGGGSLEMAEVQLVETGGGVVQPGRSLRLSCAASGFTFSSYGMHWVRQAPGKGLEWVAVISHDGSNKYYADSVKGRFTISRDNSKDTLYLQMNSLRGEDTAVYYCARSNQWSGYFSFDYWGQGTLVTVSSTSGQAGQHHHHHHGAYPYDVPDYAS
# notes: as for B1
# B3: ET200-034 (scFv)
# scFv: QSVLTQPPSVSGAPGQRVTISCTGSTSNIGAGYDVHWYQQLPGTAPKLLINNNRNRPSGVPDRFSGSKSGTSATLGITGLQTGDEADYYCGTWDGSLTGAVFGGGTKLTVLGSRGGGGSGGGGSGGGGSLEMAEVQLVQSGAEVKKPGSSVKVSCKASGGTFSSYAISWVRQAPGQGLEWMGGIIPIFGTANYAQKFQGRVTITADESTSTAYMELSSLRSEDTAVYYCARGSALDHYDRWGQGTLVTVSSTSGQAGQHHHHHHGAYPYDVPDYAS
# notes: as for B1
# B4: ET200-033 (scFv)
# scFv: NFMLTQPHSVSESPGKTVTISCTGSSGSIASNYVQWYQQRPGSAPTTVIYEDNQRPSGVPDRFSGSIDSSSNSASLTISGLKTEDEADYYCQSYDSSNHWVFGGGTKLTVLGSRGGGGSGGGGSGGGGSLEMAQVQLQQWGAGLLKPSETLSLTCAVYGGSFSGYYWSWIRQPPGKGLEWIGEITHSGRSNYNPSLKSRVTISVDTSKNQFSLKLSSVTAADTAVYYCARSSIMSDYWGQGTLVTVSSTSGQAGQHHHHHHGAYPYDVPDYAS
# notes: as for B1
# B5: ET200-041 (scFv)
# scFv: NFMLTQPHSVSGSPGKTVTISCTGSSGSIADNFVQWYQQRPGGVPTTVIFNDDERPSGVPDRFSGSIDTSSNSASLTISGLKTEDEADYYCQSYDNNNRGVFGGGTKLTVLGSRGGGGSGGGGSGGGGSLEMAQVQLVQSGAEVKKPGSSVKVSCKASGGTFSSYAISWVRQAPGQGLEWMGWMNPNSGNTGYAQKFQGRVTMTRNTSISTAYMELSNLRSEDTAVYYCARYYSYGYDWGQGTLVTVSSTSGQAGQHHHHHHGAYPYDVPDYAS
# notes: as for B1
# B6: ET200-040 (scFv)
# scFv: QSVLTQPPSVSGAPGQRVTISCTGSSSNIGAGYDVHWYQQLPGTAPKLLIYGNSNRPSGVPDRFSGSKSGTSASLAITGLQAEDEADYYCQSYDSSLSGYVFGTGTKVTVLGSRGGGGSGGGGSGGGGSLEMAQVQLVQSGAEVKKPGASVKVSCKVSGYTLTELSMHWVRQAPGKGLEWMGGFDPEDGETIYAQKFQGRVTMTEDTSTDTAYMELSSLRSEDTAVYYCARYSGVYYDWGQGTLVTVSSTSGQAGQHHHHHHGAYPYDVPDYAS
# notes: as for B1
# What was measured:
# SLAMF9 protein = SLAMF9 protein (UniProt Q96A28 19-236, limits assumed); assay: phage clone on SLAMF9 protein
# Chain of SLAMF9 protein (Q96A28 19-236 limits assumed): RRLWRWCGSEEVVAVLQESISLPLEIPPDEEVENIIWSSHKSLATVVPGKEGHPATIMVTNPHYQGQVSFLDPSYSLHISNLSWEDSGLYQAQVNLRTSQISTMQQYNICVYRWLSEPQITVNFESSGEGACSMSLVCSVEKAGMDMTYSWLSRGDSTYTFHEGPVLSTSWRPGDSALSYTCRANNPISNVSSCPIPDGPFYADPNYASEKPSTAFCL
# [1] = biological target: T1, FcRL2, overexpressed on 3T3 cells (UniProt Q96LA5 20-508, limits assumed); assay: phage clone on 3T3-FcRL2 cells
# T1 construct: whole, on cells
# T1 sequence (looked up): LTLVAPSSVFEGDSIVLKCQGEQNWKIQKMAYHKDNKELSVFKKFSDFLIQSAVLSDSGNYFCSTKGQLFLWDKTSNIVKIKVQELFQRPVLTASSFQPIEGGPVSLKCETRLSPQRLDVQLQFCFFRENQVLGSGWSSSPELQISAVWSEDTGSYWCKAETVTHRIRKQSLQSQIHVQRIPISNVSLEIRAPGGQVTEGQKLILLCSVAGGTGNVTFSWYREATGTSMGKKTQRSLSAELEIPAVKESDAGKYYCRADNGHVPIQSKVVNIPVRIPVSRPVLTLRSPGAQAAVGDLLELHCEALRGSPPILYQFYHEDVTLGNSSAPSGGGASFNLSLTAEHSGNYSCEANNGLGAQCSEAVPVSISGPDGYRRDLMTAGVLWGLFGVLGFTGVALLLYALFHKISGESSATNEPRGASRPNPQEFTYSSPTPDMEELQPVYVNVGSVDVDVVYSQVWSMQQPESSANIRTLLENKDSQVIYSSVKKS
# [2] = biological target: T2, FcRL4, overexpressed on 3T3 cells (UniProt Q96PJ5 20-515, limits assumed); assay: phage clone on 3T3-FcRL4 cells
# T2 construct: whole, on cells
# T2 sequence (looked up): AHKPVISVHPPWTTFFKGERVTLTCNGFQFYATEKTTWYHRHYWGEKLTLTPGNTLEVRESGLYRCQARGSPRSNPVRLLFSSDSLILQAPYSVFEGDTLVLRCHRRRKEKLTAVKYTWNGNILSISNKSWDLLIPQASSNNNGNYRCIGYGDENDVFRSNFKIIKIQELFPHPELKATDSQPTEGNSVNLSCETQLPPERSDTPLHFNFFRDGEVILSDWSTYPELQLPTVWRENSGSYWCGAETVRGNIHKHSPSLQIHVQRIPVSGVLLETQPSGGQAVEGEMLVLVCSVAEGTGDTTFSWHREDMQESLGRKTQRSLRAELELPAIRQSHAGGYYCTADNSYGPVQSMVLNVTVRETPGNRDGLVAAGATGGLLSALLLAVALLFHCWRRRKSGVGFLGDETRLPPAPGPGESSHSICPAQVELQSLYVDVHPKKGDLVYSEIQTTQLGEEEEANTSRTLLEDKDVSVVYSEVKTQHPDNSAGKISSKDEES
# [3] = biological target: T3, FcRL6, overexpressed on 3T3 cells (UniProt Q6DN72 20-434, limits assumed); assay: phage clone on 3T3-FcRL6 cells
# T3 construct: whole, on cells
# T3 sequence (looked up): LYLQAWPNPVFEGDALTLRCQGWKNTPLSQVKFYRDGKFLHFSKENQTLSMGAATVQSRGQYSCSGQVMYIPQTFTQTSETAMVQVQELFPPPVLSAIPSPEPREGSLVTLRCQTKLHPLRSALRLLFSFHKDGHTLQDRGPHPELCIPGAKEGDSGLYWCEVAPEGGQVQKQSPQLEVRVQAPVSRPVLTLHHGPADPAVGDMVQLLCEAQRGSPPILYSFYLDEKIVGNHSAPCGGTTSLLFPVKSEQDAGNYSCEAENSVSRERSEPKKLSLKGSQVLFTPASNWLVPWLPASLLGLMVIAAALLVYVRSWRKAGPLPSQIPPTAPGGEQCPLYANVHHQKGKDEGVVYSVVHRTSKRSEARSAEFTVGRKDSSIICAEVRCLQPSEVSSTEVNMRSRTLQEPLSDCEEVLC
# [4] = biological target: T4, Fc Receptor-like 5 (FcRL5), full length, overexpressed on 3T3 or Raji cells (human, UniProt Q96RD9 16-977); assay: phage clone screening on cells
# T4 construct: also called 3T3-FcRL5
# T4 sequence: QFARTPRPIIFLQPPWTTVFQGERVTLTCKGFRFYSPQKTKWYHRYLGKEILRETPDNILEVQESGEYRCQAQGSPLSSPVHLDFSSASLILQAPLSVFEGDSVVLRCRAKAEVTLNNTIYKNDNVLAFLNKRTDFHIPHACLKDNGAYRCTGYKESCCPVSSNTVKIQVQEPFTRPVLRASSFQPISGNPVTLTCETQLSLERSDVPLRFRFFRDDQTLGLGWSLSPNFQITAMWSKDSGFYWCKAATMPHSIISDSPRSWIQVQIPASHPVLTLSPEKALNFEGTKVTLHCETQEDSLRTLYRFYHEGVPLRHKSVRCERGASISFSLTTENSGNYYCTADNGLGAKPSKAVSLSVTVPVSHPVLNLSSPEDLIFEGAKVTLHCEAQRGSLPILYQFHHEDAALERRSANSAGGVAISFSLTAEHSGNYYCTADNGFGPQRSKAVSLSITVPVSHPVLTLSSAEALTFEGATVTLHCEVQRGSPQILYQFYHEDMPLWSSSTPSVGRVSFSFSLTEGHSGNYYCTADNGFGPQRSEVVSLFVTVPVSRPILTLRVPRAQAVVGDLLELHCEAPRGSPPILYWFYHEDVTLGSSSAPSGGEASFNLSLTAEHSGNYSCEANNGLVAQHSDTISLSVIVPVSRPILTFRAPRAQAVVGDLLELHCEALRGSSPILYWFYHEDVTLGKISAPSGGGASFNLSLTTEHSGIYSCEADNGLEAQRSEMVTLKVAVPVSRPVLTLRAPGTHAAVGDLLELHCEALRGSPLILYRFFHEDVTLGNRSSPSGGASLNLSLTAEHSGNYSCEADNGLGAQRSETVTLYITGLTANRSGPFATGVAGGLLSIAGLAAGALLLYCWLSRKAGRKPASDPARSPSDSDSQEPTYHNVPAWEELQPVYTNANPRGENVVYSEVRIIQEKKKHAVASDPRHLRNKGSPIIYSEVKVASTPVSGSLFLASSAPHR
# How it was run: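 scFv phage clones were incubated with live 3T3 cells overexpressing full-length FcRL5, then detected with mouse anti-M13 mAb and PE-anti-mouse Ig by flow cytometry. 3T3 cells expressing FcRL1, 2, 3, 4 or 6 served as negative-control targets.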
Binder,binding result (SLAMF9 protein),binding result [1],binding result [2],binding result [3],binding result [4]
B1,no binding,no binding,no binding,no binding,binds
B2,no binding,no binding,no binding,no binding,binds
B3,no binding,no binding,no binding,no binding,binds
B4,no binding,no binding,no binding,no binding,binds
B5,no binding,no binding,no binding,no binding,binds
B6,no binding,no binding,no binding,no binding,binds

# Source: US20210388081A1 (Memorial Sloan Kettering, published 2021)
